These results are taken from article PMC2695463, “Conformational flexibility and molecular interactions of an archaeal homologue of the Shwachman-Bodian-Diamond syndrome protein”.

The target of the series is T1, mthSBDS (Methanothermobacter thermautotrophicus, UniProt O26781 1-232, R175M).
T1 sequence: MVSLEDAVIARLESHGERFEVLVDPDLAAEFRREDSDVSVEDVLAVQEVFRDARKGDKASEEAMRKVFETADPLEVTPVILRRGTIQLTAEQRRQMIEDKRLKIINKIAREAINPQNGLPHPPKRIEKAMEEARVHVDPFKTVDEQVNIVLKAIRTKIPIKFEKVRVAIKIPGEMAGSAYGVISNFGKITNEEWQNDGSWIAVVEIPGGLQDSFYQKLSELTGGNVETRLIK
Nature of the series: EMSA; SPR: 10 mM HEPES pH 7.5, 150 mM NaCl, 5 uM EDTA, 0.05% P20, +/- 5 mM MgCl2, temperature not stated; SELEX: 25 mM Tris pH 7.5, 0.5 M NaCl; EMSA: protein 1e-12 to 1e-4 M, buffer not stated. Conditions: protein: recombinant; tags: N-terminal 19-aa extension with His6 (pET28a). In general terms: In EMSA bound probe runs differently from free probe, usually more slowly.

B1: 30-base poly(A) RNA (ssRNA)
RNA: AAAAAAAAAAAAAAAAAAAAAAAAAAAAAA
Take B1: the binding result is listed as “no binding”.
